What all share (test): ELISA
In experiment [1] the target is T1, SARS-CoV-2 prefusion stabilized trimer protein (WIV02 isolate spike protein) (UniProt P0DTC2 14-1213).
Experiment [2] addresses SARS-CoV-2 receptor binding domain (UniProt P0DTC2 319-541).
Experiment [3] addresses T1, SARS-CoV-2 prefusion stabilized trimer …. This is another data set of the same source.
The next experiment addresses SARS-CoV-1 spike protein (SARS-CoV-1, UniProt P59594 14-1195).
A further experiment deals with SARS-CoV-2 S2 domain (UniProt P0DTC2 686-1213).
The target of a further experiment is T2, MERS spike protein (MERS-CoV, UniProt K9N5Q8 18-1296).
T2 chain: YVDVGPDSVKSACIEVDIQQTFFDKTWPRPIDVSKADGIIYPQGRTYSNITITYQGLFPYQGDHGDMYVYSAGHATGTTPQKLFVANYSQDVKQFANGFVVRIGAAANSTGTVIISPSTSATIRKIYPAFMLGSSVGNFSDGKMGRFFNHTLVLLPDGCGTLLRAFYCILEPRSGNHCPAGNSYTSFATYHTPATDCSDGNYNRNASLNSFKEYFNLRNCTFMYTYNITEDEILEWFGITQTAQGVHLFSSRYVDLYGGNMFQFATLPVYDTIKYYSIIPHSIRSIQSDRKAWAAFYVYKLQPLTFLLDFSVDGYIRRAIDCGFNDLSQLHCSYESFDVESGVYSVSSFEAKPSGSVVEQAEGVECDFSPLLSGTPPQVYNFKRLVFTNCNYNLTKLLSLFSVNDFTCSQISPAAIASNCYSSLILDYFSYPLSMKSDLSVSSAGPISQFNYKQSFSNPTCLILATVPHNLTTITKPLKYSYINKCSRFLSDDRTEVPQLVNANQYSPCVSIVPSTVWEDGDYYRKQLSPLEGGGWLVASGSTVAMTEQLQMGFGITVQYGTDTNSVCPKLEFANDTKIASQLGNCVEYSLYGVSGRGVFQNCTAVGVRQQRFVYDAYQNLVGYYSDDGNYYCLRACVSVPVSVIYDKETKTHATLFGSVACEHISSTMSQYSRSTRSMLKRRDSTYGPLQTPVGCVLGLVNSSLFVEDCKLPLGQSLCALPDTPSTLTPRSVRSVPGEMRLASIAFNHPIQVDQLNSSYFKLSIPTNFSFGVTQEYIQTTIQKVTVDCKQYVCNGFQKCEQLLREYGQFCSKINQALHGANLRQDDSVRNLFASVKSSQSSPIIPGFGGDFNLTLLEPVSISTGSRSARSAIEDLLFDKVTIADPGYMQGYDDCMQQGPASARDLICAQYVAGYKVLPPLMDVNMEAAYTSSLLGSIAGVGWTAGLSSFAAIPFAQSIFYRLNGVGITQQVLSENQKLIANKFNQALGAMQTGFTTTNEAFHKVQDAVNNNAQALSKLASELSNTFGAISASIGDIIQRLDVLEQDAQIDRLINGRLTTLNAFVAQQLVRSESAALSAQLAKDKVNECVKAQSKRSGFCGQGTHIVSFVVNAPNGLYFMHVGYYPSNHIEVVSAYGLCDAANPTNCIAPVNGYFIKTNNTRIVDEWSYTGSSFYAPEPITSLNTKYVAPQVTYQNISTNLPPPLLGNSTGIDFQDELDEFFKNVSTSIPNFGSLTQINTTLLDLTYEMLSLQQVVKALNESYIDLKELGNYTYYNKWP

Changes are numbered by the printed parent chain. Like-named read-outs stand apart in the source and are kept apart here.

B1: 5-H22-A (antibody, V domains shown)
VH: QVQLQQSGAELVRPGASVTLSCKASGYTFTDYEMHWMKQTPVHGLEWIGAIDLETGGTVYNQKFKGKAILTADKSSNTAYMALRSLTSEDSAVYYCTREFPHYYGSRYGFPYWGQGTLVTVSA
VL: QIVLTQSPAIMSASPGEKVTITCSASSSVSYMHWLQQKPGTSPKLWIYSTSNLASGVPARFSGSGSGTSYSLTISRMEAEDAATYYCQQRSSYPYTFGGGTKLEIK
The EC50 is the concentration needed to bring the measured effect to its halfway point. Read a high EC50 as a less potent agent. For the molecule B1, the EC50 in experiment [1] came to 18.5 nM; in experiment [2] it was 166 nM; in experiment [3], 75.5 nM.

B2: 9-L13-A (antibody, V domains shown)
VH: QVQLKESGPGLVAPSQSLSITCTVSGFSLTSYAISWVRQPPGKGLEWLGLIWTGGGTNYNSALKSRLSISKDNSKSQIFLKMNSLQTDDTARYYCARGPPLIYYGDLYYFDYWGQGTTLTVSS
VL: DIQMTQSPSSLSASLGGKVTITCKASQDINKYIAWYQHKPGKGPRLLIHYTSTLQPGIPSRFSGSGSGRDYSFSISNLEPEDIATYYCLQYDNLWTFGGGTKLEIK
As for B2, the EC50 in experiment [1] was found to be 8.18 nM; in experiment [2], 26.9 nM; in experiment [3] it was 8.45 nM; with SARS-CoV-1 spike protein, 6.31 nM.

B3: 3-E13-A (antibody, V domains shown)
VH: EVQLQQSGPELVKPGASVKMSCKASGYTFTDYNIHWVKQSHGKSLEWIGYINPNNGGTDYNQKFQGKATLTVNKSSSTAYMELRSLTSEDFAVYYCARGGFYGNYGAYYGMDFWGQGTSVTVSS
VL: DIQMTQSPASLSASVGETVTITCRTSENIYSHLAWYQQTQGKSPQLLVYNAKTLAEGVPSRFSGSGSGTHFSLKINSLQPEDFGSYYCQHHYGIPPEFGGGTKLEIK
Turning to B3, the concentration for a half-maximal effect (EC50) in experiment [1] came out at 0.08 nM; in experiment [3], 0.08 nM; in the experiment with SARS-CoV-1 spike protein it was 0.16 nM; in the experiment with SARS-CoV-2 S2 domain, 0.05 nM.

B4: 6-C19-A (antibody, V domains shown)
VH: B3 VH with N73D, F91S, A107S
VL: B3 VL with Q45H, H70Q, Y87F
Turning to B4, the half-maximal effective concentration (EC50) is 0.48 nM in experiment [1], 0.49 nM in experiment [3], 1.98 nM in the experiment with SARS-CoV-1 spike protein and 0.39 nM in the experiment with SARS-CoV-2 S2 domain.

B5: 2-J9-A (antibody, V domains shown)
VH: B3 VH with F91S
VL: B3 VL with A51T, S63T, H70Q
For the molecule B5, the EC50 in experiment [1] was determined as 0.11 nM; with MERS spike protein, 1.83 nM; in experiment [3], 0.08 nM; in the experiment with SARS-CoV-1 spike protein, 0.17 nM; with SARS-CoV-2 S2 domain, 0.05 nM.

B6: 4-C3-A (antibody, V domains shown)
VH: EVQLQQSGPELVKPGASVKISCKASGYSFTGYYMHWVKQSHGNILDWIGYIYPYNGVSSYNQKFKGKATLTVDKSSSTAYMELRSLTSEASAVYYCARAYGSSYDYYYGLDYWGQGTSVTVSS
VL: DIVLTQSPASLAVSLGQRATISCKASQSVDYDGAGYMNWYQQKPGQPPKLLISSASNLQSGIPARFSGSGSGTDFTLNIHPVEEEDAATYYCQQSNDDPYTFGGGTKLEIK
Consider B6, for which the figures for the concentration giving a half-maximal response (EC50) (in experiment [1]; in experiment [3]; with SARS-CoV-2 S2 domain) were 0.08 nM, 0.54 nM and 81.1 nM, respectively.

B7: 4-K13-A (antibody, V domains shown)
VH: QAYLQQSGAELVRPGASVKMSCKASGYTFTSYTVHWVKQTPRQGLEWIGAIYPGNVDTSYNQNFKGKATLTVDKSSSTAYMQLSSLTSEDSAVYFCARDGYYAMDYWGQGTSVTVSS
VL: not shown
Regarding B7, the EC50 in experiment [2] was 0.15 nM; in experiment [3], 0.14 nM; with SARS-CoV-2 S2 domain it was 87 nM.

B8: 2-P2-A (antibody, V domains shown)
VH: EVQLQQSGAELVRPGSSVKMSCKTSGYTFTSYGINWVKQRPGQGLEWIGYIYIGNGYTEYNEKFKGKATLTSDTSSSTAYMQLSSLTSEDSAIYFCARGGVDYWGQGTTLTVSS
VL: DVLMTQTPLSLPVSLGDQASISCRSSQSIVHSNGNTYLEWYLQKPGQSPKLLIYKVSNRFSGVPDRFSGSGSGTDFTLKISRVEAEDLGVYYCFQGSHVPYTFGGGTKLEIK
Turning to B8, the concentration giving a half-maximal response (EC50) in experiment [1] was determined as 0.12 nM; in experiment [2] it was 89.5 nM; in experiment [3] it was 0.13 nM; in the experiment with SARS-CoV-1 spike protein, 0.19 nM; in the experiment with SARS-CoV-2 S2 domain it was 0.07 nM.

B9: 9-P9-A (antibody, V domains shown)
VH: DVKLVESGEGLVKPGGSLKLSCAASGFSFSNFGMSWVRQTPEKRLEWVAYISSGGDYIYYADTVKGRFTISRDNARNTLYLQMSSLKSEDTAIYYCTRGYFDYWGQGTTLTVSS
VL: B8 VL with K55T, I111M, K112R
Consider B9, for which the concentration for a half-maximal effect (EC50) in experiment [1] was 0.05 nM; in experiment [3], 0.05 nM; with SARS-CoV-1 spike protein, 0.06 nM; with SARS-CoV-2 S2 domain, 0.04 nM.

B10: 6-L8-A (antibody, V domains shown)
VH: EVQLQQSVAELVRPGASVKLSCTPSGFNIKNTYMHWMKQRPEQGLEWIGRINPANDDTKYAPKFQDKATITADTSSNTAYLQLSSLTSEDTAIYYCVYDVRWYFDVWGTGTTVTVSS
VL: DVVMTQTPLSLPVSLGDQASISCRSSQGLVHSNGNTYLHWYLQKPGQSPKLLIYKVSNRFSGVPDRFSGSGSGTDFTLKISRVEAEDLGVYFCSQSTHVPPTFGAGTKLELK
Take B10: the EC50 in experiment [1] is 6.8 nM; in experiment [3], 7.46 nM; with SARS-CoV-1 spike protein, 43.5 nM.

B11: 8-N24-A (antibody, V domains shown)
VH: QVQLQQPGAELVKPGASVKVSCKASGYTFTSYWMHWVKQRPGQGLEWIGRIHPSDSDTNYYQKFKGKATLSVDKSSSTAYMQLSSLTSEDSAVYYCAIPLYSYDNSGGYYPMDYWGQGTSVTVSS
VL: DIVMTQSQKFMSTSVGDRVTITCKASQNVRTAVAWYQQKPGQSPKKLIYLASNRHTGVPDRFTGSGSGTDFTLAISNVQSEDLADYFCLQHWNYPFTFGSGTRLEIK
In the case of B11, the half-maximal effective concentration (EC50) with SARS-CoV-1 spike protein stood at 59 nM; with SARS-CoV-2 S2 domain, 4.43 nM.

Source of the values: US20240239875A1 (published 2024).
